US20130058939A1

Biological target: low-density lipoprotein (LDL) receptor-related protein (LRP) on bovine brain capillary endothelial cells of the in vitro BBB model (bovine)
Assay: cell-based or functional assay
Conditions: for alteplase (% of passage versus filter), spectrozyme assay, in vitro BBB model: scale: % of passage versus filter for alteplase alone

DSPA α2 (alpha 2), sequence (P15638 37-477 limits assumed): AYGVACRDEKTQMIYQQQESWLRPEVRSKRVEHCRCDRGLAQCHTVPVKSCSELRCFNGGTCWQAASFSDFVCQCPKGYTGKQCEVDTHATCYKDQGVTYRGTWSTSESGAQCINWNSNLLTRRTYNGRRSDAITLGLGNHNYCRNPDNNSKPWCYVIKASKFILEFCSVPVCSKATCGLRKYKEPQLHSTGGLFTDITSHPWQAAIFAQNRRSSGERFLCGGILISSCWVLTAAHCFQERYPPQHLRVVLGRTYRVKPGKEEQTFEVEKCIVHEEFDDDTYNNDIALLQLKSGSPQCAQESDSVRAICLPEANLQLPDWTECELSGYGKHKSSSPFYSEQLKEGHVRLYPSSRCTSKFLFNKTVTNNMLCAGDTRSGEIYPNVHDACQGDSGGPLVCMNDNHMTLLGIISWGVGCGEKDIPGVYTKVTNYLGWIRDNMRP
DSPAα1 (Desmoteplase), sequence (P98119 37-477 limits assumed): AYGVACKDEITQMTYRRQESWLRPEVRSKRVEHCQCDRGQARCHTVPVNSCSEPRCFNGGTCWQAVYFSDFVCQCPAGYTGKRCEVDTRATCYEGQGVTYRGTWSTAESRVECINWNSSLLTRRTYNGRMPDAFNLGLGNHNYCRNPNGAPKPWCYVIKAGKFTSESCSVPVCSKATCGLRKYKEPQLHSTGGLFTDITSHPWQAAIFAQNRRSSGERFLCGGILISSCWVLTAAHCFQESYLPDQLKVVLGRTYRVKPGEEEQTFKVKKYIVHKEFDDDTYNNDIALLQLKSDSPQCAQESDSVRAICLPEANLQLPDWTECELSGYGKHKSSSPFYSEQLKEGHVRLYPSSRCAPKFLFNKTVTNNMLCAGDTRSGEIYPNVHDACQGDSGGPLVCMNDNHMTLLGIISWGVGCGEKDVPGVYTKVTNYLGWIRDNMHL
clogged Desmoteplase (cDSPA), DSPA alpha 1 inactivated with D-phenyl-prolyl-arginine chloromethyl ketone, sequence (P98119 37-477 limits assumed): as above

“clogged Desmoteplase (cDSPA), DSPA alpha 1 inactivated with D-phenyl-prolyl-arginine chloromethyl ketone (from UniProt P98119 37-477) (enzyme)” gave a % of abluminal alteplase (zymography assay; alteplase alone = 100), in vitro BBB model (% of abluminal alteplase alone) of 73.3 and an alteplase (% of passage versus filter), spectrozyme assay, in vitro BBB model of 76.3.
“DSPAα1 (Desmoteplase) (from UniProt P98119 37-477) (enzyme)” showed a % of abluminal alteplase (zymography assay; alteplase alone = 100), in vitro BBB model (% of abluminal alteplase alone) of 46.6 and an alteplase (% of passage versus filter), spectrozyme assay, in vitro BBB model of 67.
Substance “DSPA α2 (alpha 2) (from UniProt P15638 37-477) (enzyme)” has a % of abluminal alteplase (zymography assay; alteplase alone = 100), in vitro BBB model (% of abluminal alteplase alone) of 25.1 and an alteplase (% of passage versus filter), spectrozyme assay, in vitro BBB model of 61.9.
Reteplase (Rapilysin) (enzyme) showed a % of abluminal alteplase (zymography assay; alteplase alone = 100), in vitro BBB model (% of abluminal alteplase alone) of 51.6.
